In patent US11191823 (CHILDREN S MEDICAL CENTER, dated 2021):
Values joined by “and” are separate entries in the source; they are usually repeats but may differ in a detail not shown here. Equal entries are not always repeated.

Columns and labels:
[1] = molecular target: T1, JUNV GP1 (residues 87-235), biotinylated (Junin virus (JUNV), UniProt P26313 87-235); assay: ELISA, plates coated with antigen, IgG titrated
[2] = molecular target: T1, JUNV GP1 (residues 87-235), biotinylated
[3] = molecular target: T1, JUNV GP1 (residues 87-235), biotinylated; assay: ELISA, plates coated with biotinylated antigen, IgG titrated
[4] = molecular target: T1, JUNV GP1 (residues 87-235), biotinylated; assay: SPR, Fab over immobilized JUNV GP1

Row | Binder | EC50 (read off the curve) [3] [µg/mL] | Kd [4] [nM] | other results
1 | GD01 IgG (antibody, V domains shown) VH: EVKLQQSGAELARPGTSVKLSCKASGYTFTNYWMQWIKQRPGQGLEWIGAVYPGDGDTRFSQKFKGKATLTADKSSSTAYMQLSSLSSEDSAVYFCARRRVYYGSNYIYALDYWGQGTSVTVSA VL: DIVMTQSQKFMSTSIGDRVSITCKASQNVGSAVAWYQQKPGQSPKLLIYSASNRYTGVPDRFIGSESGTDFTLTISNMQSEDLADYFCQQYSSYPLAFGAGTKLELK |  |  | EC50 (read off the curve) [1]: ~0.1 µg/mL; IC50 (read off the curve) [2]: ~8 µg/mL and ~7 µg/mL and ~10 µg/mL
2 | CR1-28 IgG (antibody, V domains shown) VH: QVQLVESGGGVVQPGRSLRLSCAASGFTFSSSAMHWVRQAPGKGLEWVAVIWSDGSNENYADSVKGRFTISRDNSKNTLYLQMSSLRAEDTAVYYCATDKTYVSGYTSTWYYFNYWGQGTLVTVS VL: DIQMTQSPSTLSASVGDRVTITCRASQSIDNWLAWYQQKPGKAPKLLIYTASRLESGVPSRFSGSGSGTEFTLTISSLQPDDFATYYCQHRTFGQGTKVEIK | ~0.1 |  | 
3 | CR1-28 Fab (Fab, V domains shown) VH: QVQLVESGGGVVQPGRSLRLSCAASGFTFSSSAMHWVRQAPGKGLEWVAVIWSDGSNENYADSVKGRFTISRDNSKNTLYLQMSSLRAEDTAVYYCATDKTYVSGYTSTWYYFNYWGQGTLVTVS VL: DIQMTQSPSTLSASVGDRVTITCRASQSIDNWLAWYQQKPGKAPKLLIYTASRLESGVPSRFSGSGSGTEFTLTISSLQPDDFATYYCQHRTFGQGTKVEIK |  | 5.3 | 
4 | CR1-07 IgG (antibody, V domains shown) VH: QVQLVESGGGVVHPGRSLRLSCAASGFTFGTSIMHWVRQAPGKGMQWVAQISHDESRKFYSDSVKGRFTVSRDNSKNTLFLEMSSLRIEDTAVYYCAKDLSPPYSYAWDIFQYWGQGSLVTVS VL: DIVMTQSPESLAVSLGERATINCKSSQSVLYSSRSDNKDYLAWYQQKPGQSPKLLIYWASTRESGVPERFTGSGSGTDFTLSISSLQAEDVAVYYCQQYYSSPPTFGGGTKVELK | ~0.2 |  | 
5 | CR1-07 Fab (Fab, V domains shown) VH: QVQLVESGGGVVHPGRSLRLSCAASGFTFGTSIMHWVRQAPGKGMQWVAQISHDESRKFYSDSVKGRFTVSRDNSKNTLFLEMSSLRIEDTAVYYCAKDLSPPYSYAWDIFQYWGQGSLVTVS VL: DIVMTQSPESLAVSLGERATINCKSSQSVLYSSRSDNKDYLAWYQQKPGQSPKLLIYWASTRESGVPERFTGSGSGTDFTLSISSLQAEDVAVYYCQQYYSSPPTFGGGTKVELK |  | 86.2 | 
